Test results reported in patent US20240158479A1.

Legend:
Assay in all cases: cell-based or functional assay
[1] = biological target: Omicron BA.2.75 spike on pseudovirus (SARS-CoV-2)
[2] = biological target: Alpha spike (B.1.1.7) on pseudovirus (SARS-CoV-2)
[3] = biological target: Omicron BA.2 spike on pseudovirus (SARS-CoV-2)
[4] = biological target: Omicron BA.1 spike on pseudovirus (SARS-CoV-2)
[5] = biological target: Omicron BA.2.12.1 spike on pseudovirus (SARS-CoV-2)
[6] = biological target: Delta spike (B.1.617.2) on pseudovirus (SARS-CoV-2)
[7] = biological target: Gamma spike (P.1) on pseudovirus (SARS-CoV-2)
[8] = biological target: Beta spike (B.1.351) on pseudovirus (SARS-CoV-2)
[9] = biological target: Omicron BA.4/5 spike on pseudovirus (SARS-CoV-2)
[10] = biological target: Omicron BA.4.6 spike on pseudovirus (SARS-CoV-2)
[11] = biological target: Omicron BQ.1.1 spike on pseudovirus (SARS-CoV-2)

Row | Substance | IC50, pseudovirus neutralization [1] | IC50, pseudovirus neutralization [2] | IC50, pseudovirus neutralization [3] | IC50, pseudovirus neutralization [4] | IC50, pseudovirus neutralization [5] | IC50, pseudovirus neutralization [6] | IC50, pseudovirus neutralization [7] | IC50, pseudovirus neutralization [8] | IC50, pseudovirus neutralization [9] | IC50, pseudovirus neutralization [10] | IC50, pseudovirus neutralization [11]
1 | Casirivimab (antibody) | 0.44 µg/mL | 0.0052 µg/mL | > 5 µg/mL | > 5 µg/mL | > 5 µg/mL | 0.0027 µg/mL | 0.18 µg/mL | 0.094 µg/mL | > 5 µg/mL | > 5 µg/mL | > 5 µg/mL
2 | Tixagevimab (antibody) | 0.11 µg/mL | 0.0017 µg/mL | > 5 µg/mL | 0.14 µg/mL | 0.56 µg/mL | 0.0008 µg/mL | 0.006 µg/mL | 0.0054 µg/mL | > 5 µg/mL | > 5 µg/mL | > 5 µg/mL
3 | Bamlanivimab (antibody) | > 5 µg/mL | 0.0034 µg/mL | > 5 µg/mL | > 5 µg/mL | > 5 µg/mL | 0.59 µg/mL | 1.4 µg/mL | 0.21 µg/mL | > 5 µg/mL | > 5 µg/mL | > 5 µg/mL
4 | Etesevimab (antibody) | > 5 µg/mL | 0.1 µg/mL | > 5 µg/mL | > 5 µg/mL | > 5 µg/mL | 0.0058 µg/mL | > 5 µg/mL | > 5 µg/mL | > 5 µg/mL | > 5 µg/mL | > 5 µg/mL
5 | Bebtelovimab (antibody) | 0.0033 µg/mL | 0.002 µg/mL | 0.0018 µg/mL | 0.0023 µg/mL | 0.0023 µg/mL | 0.0015 µg/mL | 0.0017 µg/mL | 0.0009 µg/mL | 0.0014 µg/mL | 0.0013 µg/mL | > 5 µg/mL
6 | Cilgavimab (antibody) | 0.055 µg/mL | 0.01 µg/mL | 0.0091 µg/mL | 0.21 µg/mL | 0.019 µg/mL | 0.018 µg/mL | 0.005 µg/mL | 0.003 µg/mL | 0.018 µg/mL | > 5 µg/mL | > 5 µg/mL
7 | Imdevimab (antibody) | > 5 µg/mL | 0.0028 µg/mL | 0.51 µg/mL | > 5 µg/mL | 0.1 µg/mL | 0.0035 µg/mL | 0.0019 µg/mL | 0.0028 µg/mL | 0.32 µg/mL | 0.18 µg/mL | > 5 µg/mL
